Target: Orai1-CFP (UniProt Q96D31)
Sequence of UniProt Q96D31 (Q96D31 whole entry): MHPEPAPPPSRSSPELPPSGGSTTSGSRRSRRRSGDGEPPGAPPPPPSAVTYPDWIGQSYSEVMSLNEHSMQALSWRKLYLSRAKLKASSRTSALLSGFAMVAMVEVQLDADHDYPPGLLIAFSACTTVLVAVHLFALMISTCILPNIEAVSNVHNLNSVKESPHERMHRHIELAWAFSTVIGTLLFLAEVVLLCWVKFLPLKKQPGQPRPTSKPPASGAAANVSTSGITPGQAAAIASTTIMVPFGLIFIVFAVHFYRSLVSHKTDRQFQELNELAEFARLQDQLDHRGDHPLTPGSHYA

Row | Substance | constitutive Ca2+ entry at rest [nM]
1 | STIM1-G379E (from UniProt Q13586 23-685) (natural protein) | 6.6
2 | STIM1-G379E-ΔK (domain or fragment) | 3.5

— PMC6267984
